This note sets out measurements from patent US20130116412.

The subject of data set [1] is GST-(PPG)5, fusion of glutathione S-transferase and (Pro-Pro-Gly)5 with an intervening thrombin cleavage site.
The test system of a further data set is T1, Ac-GFPG-NH2.
T1 sequence: GFPG

Chain of GST-(PPG)5, fusion of glutathione S-transferase and (Pro-Pro-Gly)5 with an intervening thrombin cleavage site (chain, as listed by the source): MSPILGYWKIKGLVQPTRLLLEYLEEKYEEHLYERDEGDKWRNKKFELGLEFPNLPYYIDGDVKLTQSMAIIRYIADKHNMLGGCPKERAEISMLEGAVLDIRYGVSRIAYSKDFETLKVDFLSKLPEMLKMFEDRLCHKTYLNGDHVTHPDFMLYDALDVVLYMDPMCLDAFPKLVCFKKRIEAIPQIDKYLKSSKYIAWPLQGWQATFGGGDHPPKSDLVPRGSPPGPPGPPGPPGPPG

With “human prolyl-4-hydroxylase (P4H), full-length tetramer produced from plasmid pBK1.PDI1.P4H7”, the “in vitro hydroxylation of proline residues, MALDI-TOF of the cleaved peptide” value in data set [1] was “up to 3 hydroxyproline residues were produced in the (PPG)5 peptide after incubation with P4H”. Besides, the “in vitro hydroxylation of proline, MALDI-TOF / LC-MS” value in the data set on Ac-GFPG-NH2 is listed as “The positive control showed that the proline residue in Ac-GFPG-NH2 was hydroxylated”.
